Experiment [1] deals with rat LTBP1-proTGFβ1 complex (rat, UniProt Q00918 339-1712; P17246 30-390). Kind of experiment: Octet (BLI) binding assay as in Table 6. As for the experimental part:
a. Dilute both antibodies to 50 μg/mL in 300 μl of 1x buffer in row A. b. Add 200 μl of buffer to the rest of each column c. Transfer 100 μl down the column to make 3-fold dilutions
(In general: In BLI a coated tip is dipped into the sample, and binding shifts an interference pattern.)

The target of the next experiment is T1, proTGFβ2 (Chlorocebus aethiops (Green monkey) …, UniProt P61811 20-414).
T1 sequence: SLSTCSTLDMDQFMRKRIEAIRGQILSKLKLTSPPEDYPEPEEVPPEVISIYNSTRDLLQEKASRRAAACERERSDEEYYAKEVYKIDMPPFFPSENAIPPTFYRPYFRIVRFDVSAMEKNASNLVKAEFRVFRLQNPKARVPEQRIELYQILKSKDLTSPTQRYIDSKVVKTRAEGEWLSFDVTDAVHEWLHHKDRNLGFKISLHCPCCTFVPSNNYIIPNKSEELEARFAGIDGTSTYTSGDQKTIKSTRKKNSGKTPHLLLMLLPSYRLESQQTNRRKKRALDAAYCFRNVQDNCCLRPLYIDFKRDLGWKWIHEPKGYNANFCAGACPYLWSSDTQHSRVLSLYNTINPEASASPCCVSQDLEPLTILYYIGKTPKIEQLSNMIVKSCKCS
Kind of experiment: ELISA. (In general: In an ELISA, binding on a coated surface is turned into a signal by an enzyme label.)

The next experiment concerns the target T2, proTGFβ3 (Homo sapiens (Human), UniProt P10600 24-412).
T2 sequence: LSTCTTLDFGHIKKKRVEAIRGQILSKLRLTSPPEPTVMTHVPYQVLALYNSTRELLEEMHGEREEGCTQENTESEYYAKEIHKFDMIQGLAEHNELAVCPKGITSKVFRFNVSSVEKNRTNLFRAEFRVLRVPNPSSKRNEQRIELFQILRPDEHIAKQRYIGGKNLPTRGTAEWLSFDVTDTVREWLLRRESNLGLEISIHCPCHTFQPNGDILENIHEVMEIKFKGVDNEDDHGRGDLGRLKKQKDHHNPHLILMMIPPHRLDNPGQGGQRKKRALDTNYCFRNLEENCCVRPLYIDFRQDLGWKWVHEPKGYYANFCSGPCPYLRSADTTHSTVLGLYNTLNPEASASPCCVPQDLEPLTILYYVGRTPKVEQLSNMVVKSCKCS
Kind of experiment: ELISA.

rat LTBP1-proTGFβ1 complex, sequence (Q00918 339-1712, chain 1 of 2): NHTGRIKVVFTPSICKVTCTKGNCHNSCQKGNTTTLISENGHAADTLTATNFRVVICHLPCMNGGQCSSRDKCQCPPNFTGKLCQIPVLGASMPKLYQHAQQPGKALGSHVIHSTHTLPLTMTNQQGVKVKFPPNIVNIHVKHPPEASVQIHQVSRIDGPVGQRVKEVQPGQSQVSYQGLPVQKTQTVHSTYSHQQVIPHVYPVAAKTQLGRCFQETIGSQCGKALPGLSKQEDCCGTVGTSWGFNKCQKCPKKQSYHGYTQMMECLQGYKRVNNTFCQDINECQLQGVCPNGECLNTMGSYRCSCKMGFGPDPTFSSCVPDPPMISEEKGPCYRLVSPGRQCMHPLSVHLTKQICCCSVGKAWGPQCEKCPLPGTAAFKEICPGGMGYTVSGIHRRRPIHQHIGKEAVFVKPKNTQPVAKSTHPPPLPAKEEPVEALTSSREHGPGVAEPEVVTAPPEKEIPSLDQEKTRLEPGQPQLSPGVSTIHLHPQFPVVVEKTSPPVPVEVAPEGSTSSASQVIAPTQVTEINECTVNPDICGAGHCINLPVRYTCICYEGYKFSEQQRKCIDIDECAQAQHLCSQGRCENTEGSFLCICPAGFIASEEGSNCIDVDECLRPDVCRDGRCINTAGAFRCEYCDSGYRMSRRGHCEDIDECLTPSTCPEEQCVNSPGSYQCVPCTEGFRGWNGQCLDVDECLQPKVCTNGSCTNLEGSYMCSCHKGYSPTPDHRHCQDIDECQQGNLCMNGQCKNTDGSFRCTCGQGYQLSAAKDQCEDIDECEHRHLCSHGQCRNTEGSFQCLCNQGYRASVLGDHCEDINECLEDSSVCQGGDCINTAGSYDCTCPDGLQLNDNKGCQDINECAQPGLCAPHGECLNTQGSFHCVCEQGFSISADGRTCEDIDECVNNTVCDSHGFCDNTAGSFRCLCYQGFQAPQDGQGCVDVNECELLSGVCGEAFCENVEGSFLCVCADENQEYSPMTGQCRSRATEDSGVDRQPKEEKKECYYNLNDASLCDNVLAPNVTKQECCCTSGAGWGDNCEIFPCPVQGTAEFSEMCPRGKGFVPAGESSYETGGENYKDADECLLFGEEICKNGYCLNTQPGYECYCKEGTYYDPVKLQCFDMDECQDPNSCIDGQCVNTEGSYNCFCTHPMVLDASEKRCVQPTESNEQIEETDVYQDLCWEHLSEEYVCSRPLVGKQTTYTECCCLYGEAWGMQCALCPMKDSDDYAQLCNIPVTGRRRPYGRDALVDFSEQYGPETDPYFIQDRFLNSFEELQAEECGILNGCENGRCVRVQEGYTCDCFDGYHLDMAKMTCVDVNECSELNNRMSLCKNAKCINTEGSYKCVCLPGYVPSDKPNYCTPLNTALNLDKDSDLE
rat LTBP1-proTGFβ1 complex, sequence (P17246 30-390, chain 2 of 2): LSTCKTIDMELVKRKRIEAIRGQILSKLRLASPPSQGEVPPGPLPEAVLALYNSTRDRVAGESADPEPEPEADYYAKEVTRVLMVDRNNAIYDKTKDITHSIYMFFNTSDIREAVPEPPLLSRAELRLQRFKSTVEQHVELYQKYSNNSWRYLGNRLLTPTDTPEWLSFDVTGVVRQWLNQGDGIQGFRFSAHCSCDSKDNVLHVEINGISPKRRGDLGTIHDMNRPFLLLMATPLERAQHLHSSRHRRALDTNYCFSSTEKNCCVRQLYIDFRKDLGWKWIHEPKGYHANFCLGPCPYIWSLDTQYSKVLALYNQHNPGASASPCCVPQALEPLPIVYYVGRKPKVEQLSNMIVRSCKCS

B1: Ab1 (antibody, human IgG4 S228P, lambda, V domains shown)
VH: EVQLVESGGGLVQPGRSLRLSCAASGFTFSSYGMHWVRQAPGKGLEWVAVISYDGSNKYYADSVKGRFTISRDNSKNTLYLQMNSLRAEDTAVYYCARDIRPYGDYSAAFDIWGQGTLVTVSS
VL: NFMLTQPHSVSESPGKTVTISCTGSSGSIASNYVQWYQQRPGSAPSIVIFEDNQRPSGAPDRFSGSIDSSSNSASLTISGLKTEDEADYYCQSYDSSNHGGVFGGGTQLTVLG
notes: also called antibody Ab1; clone Ab1
As for B1, the binding result (in experiment [1]; with proTGFβ2; with proTGFβ3) was “no binding” each time.

B2: Ab2 (antibody, V domains shown)
VH: EVQLVQSGAEMKKPGESLKISCKGSGYNFASDWIGWVRQTPGKGLEWMGVIYPGDSDTRYSASFQGQVTISADKSINTAYLQWSSLKASDTAMYYCASAAGIAAAGHVTAFDIWGQGTMVTVSS
VL: not shown
notes: also called antibody Ab2; clone Ab2
On to B2, for which the binding result in the experiment with proTGFβ2 and with proTGFβ3 was “no binding” each time.

The values are drawn from patent publication US20190071493A1 (SCHOLAR ROCK, published 2019).
